In article doi:10.1101/312850 (bioRxiv, 2018):

Biological target: T1, E. coli methionine aminopeptidase (MetAP), type-1a, N-terminal poly-His-tagged (E. coli, UniProt P0AE18 1-264)
T1 sequence (looked up): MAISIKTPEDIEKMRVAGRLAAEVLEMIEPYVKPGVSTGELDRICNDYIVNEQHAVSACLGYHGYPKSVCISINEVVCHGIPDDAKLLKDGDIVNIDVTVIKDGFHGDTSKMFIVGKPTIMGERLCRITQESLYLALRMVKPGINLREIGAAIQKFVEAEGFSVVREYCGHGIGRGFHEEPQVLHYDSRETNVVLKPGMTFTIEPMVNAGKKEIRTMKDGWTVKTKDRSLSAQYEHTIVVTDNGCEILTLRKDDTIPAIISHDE
Assay: cryo-EM structure

B1: E. coli peptide deformylase (PDF), N-terminal His6-tagged (enzyme, UniProt P0A6K3 1-169, looked up)
chain: MSVLQVLHIPDERLRKVAKPVEEVNAEIQRIVDDMFETMYAEEGIGLAATQVDIHQRIIVIDVSENRDERLVLINPELLEKSGETGIEEGCLSIPEQRALVPRAEKVKIRALDRDGKPFELEADGLLAICIQHEMDHLVGKLFMDYLSPLKQQRIRQKVEKLDRLKARA
B1: binds.
